Earlier results on one substance are cited in article PMC3381941.

Read-outs that look alike come from different tables or passages of the source.

The target of data set [1] is Mtf1 (Saccharomyces cerevisiae) (UniProt P14908). The experiment in a line: protein-protein crosslinking.
For data set [2] the target is unchanged. The experiment in a line: protein-protein crosslinking. This is another data set of the same source.

Sequence of UniProt P14908 (P14908 2-341): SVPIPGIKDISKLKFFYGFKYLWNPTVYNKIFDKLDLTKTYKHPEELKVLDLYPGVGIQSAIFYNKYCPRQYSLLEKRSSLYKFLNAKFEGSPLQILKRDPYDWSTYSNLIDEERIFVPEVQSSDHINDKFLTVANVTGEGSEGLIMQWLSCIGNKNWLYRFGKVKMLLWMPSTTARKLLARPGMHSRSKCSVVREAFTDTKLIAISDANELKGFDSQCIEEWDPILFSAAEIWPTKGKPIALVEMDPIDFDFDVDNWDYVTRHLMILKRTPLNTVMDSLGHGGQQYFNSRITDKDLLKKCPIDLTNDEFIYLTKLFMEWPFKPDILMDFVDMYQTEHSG

A word on the Kd: it is the constant that tells how readily two partners part at equilibrium. As to Rpo41 (from UniProt P13433), the values for the Kd in data set [1] and in data set [2] were 600 nM and 400 nM, respectively.
